Results: PMC8932525 (The Journal of Cell Biology, 2022)

Assays:
[1] = biological target: nuclear pore complexes (NPCs) in endoKap-depleted digitonin-permeabilized HeLa cells (human (endogenous in HeLa)); test: permeabilized cell assay, confocal fluorescence microscopy
[2] = biological target: T1, importin-5 (Imp5) (UniProt O00410 1-1097); test: SPR
T1 sequence (looked up): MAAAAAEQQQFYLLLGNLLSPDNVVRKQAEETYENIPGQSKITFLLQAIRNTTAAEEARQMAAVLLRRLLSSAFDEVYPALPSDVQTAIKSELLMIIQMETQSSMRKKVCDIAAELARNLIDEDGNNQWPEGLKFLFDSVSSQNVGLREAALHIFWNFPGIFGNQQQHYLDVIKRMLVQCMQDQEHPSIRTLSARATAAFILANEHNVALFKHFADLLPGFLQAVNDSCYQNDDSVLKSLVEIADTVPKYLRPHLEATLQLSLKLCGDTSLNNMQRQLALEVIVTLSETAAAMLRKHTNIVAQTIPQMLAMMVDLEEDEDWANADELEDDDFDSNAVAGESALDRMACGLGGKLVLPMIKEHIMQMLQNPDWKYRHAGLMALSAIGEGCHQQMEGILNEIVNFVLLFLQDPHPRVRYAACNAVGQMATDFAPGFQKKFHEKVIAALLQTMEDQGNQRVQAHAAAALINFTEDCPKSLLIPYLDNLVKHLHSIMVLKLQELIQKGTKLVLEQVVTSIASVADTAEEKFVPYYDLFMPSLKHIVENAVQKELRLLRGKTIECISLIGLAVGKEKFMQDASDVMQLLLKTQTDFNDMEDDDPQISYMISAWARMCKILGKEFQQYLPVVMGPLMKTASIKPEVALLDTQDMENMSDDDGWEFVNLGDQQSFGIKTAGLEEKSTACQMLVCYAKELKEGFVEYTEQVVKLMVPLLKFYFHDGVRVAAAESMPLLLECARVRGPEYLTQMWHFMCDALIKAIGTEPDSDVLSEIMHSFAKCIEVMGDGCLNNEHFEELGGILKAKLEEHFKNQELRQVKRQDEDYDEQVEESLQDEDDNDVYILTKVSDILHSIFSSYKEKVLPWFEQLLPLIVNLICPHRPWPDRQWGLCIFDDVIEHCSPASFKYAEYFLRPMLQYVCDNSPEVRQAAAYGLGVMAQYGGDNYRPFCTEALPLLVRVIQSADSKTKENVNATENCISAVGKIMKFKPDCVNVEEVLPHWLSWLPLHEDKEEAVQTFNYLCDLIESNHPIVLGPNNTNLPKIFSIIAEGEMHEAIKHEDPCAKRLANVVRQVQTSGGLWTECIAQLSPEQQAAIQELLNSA

[3] = biological target: CRM1 (exportin 1/chromosomal maintenance 1) (UniProt O14980 1-1071); test: SPR
Chain of CRM1 (exportin 1/chromosomal maintenance 1) (O14980 whole entry): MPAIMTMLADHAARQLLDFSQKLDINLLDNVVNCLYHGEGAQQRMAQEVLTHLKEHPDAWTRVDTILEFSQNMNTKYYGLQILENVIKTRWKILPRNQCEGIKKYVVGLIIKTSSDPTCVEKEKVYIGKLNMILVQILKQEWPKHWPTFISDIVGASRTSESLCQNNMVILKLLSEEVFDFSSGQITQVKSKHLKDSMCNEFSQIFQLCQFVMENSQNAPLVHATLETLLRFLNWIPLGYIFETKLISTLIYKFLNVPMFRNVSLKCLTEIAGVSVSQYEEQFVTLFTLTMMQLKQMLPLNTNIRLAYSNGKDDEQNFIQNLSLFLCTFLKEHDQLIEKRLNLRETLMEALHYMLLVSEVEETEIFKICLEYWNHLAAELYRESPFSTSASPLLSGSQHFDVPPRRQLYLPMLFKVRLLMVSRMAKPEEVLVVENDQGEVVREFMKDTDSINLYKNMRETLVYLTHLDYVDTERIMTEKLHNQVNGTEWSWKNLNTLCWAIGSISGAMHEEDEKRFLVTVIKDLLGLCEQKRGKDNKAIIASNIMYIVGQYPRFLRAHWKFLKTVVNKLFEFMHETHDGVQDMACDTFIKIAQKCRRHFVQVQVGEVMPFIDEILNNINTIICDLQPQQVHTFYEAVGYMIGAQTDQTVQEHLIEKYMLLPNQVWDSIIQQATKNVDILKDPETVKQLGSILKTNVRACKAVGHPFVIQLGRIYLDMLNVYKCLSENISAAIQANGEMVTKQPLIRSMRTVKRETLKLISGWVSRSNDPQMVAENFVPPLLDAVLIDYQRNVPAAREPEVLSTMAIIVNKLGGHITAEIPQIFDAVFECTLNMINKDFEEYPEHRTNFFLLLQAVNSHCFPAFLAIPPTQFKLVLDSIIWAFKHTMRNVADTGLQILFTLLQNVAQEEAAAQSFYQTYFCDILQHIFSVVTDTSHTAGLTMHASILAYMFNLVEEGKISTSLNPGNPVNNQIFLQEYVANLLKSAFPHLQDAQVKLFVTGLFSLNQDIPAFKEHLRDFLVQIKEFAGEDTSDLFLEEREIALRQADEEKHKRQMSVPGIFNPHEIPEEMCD

With “CRM1–Alexa Fluor 647 (from UniProt O14980 1-1071) (natural protein)” the K (D,NPC) in the presence of 10 µM exoKapβ1 [1] was 2.8 µM, the Kd [1] was 500 nM and the reduction of relative occupancy from the standalone value, with 10 µM exoKapβ1 [1] was 51%. The relative occupancy with 10 µM exoImp5 [1] was 59%.

Molecule “Kapβ1–Alexa Fluor 488 (from UniProt Q14974 1-876) (natural protein)” has a Kd [1] of 3100 nM and a relative occupancy with 10 µM exoImp5 [1] of 72%.

B1: cNup98 (cysteine-tagged FG domain of human Nup98) (domain or fragment, UniProt P52948 1-498, looked up)
chain: MFNKSFGTPFGGGTGGFGTTSTFGQNTGFGTTSGGAFGTSAFGSSNNTGGLFGNSQTKPGGLFGTSSFSQPATSTSTGFGFGTSTGTANTLFGTASTGTSLFSSQNNAFAQNKPTGFGNFGTSTSSGGLFGTTNTTSNPFGSTSGSLFGPSSFTAAPTGTTIKFNPPTGTDTMVKAGVSTNISTKHQCITAMKEYESKSLEELRLEDYQANRKGPQNQVGAGTTTGLFGSSPATSSATGLFSSSTTNSGFAYGQNKTAFGTSTTGFGTNPGGLFGQQNQQTTSLFSKPFGQATTTQNTGFSFGNTSTIGQPSTNTMGLFGVTQASQPGGLFGTATNTSTGTAFGTGTGLFGQTNTGFGAVGSTLFGNNKLTTFGSSTTSAPSFGTTSGGLFGNKPTLTLGTNTNTSNFGFGTNTSGNSIFGSKPAPGTLGTGLGAGFGTALGAGQASLFGNNQPKIGGPLGTGAFGAPGFNTTTATLGFGAPQAPVALTDPNASAAQQ
B1: binds [2].

B2: cNup153 (cysteine-tagged FG domain of human Nup153) (domain or fragment, UniProt P49790 874-1475, looked up)
chain: CESAKPGTKSGFKGFDTSSSSSNSAASSSFKFGVSSSSSGPSQTLTSTGNFKFGDQGGFKIGVSSDSGSINPMSEGFKFSKPIGDFKFGVSSESKPEEVKKDSKNDNFKFGLSSGLSNPVSLTPFQFGVSNLGQEEKKEELPKSSSAGFSFGTGVINSTPAPANTIVTSENKSSFNLGTIETKSASVAPFTCKTSEAKKEEMPATKGGFSFGNVEPASLPSASVFVLGRTEEKQQEPVTSTSLVFGKKADNEEPKCQPVFSFGNSEQTKDENSSKSTFSFSMTKPSEKESEQPAKATFAFGAQTSTTADQGAAKPVFSFLNNSSSSSSTPATSAGGGIFGSSTSSSNPPVATFVFGQSSNPVSSSAFGNTAESSTSQSLLFSQDSKLATTSSTGTAVTPFVFGPGASSNNTTTSGFGFGATTTSSSAGSSFVFGTGPSAPSASPAFGANQTPTFGQSQGASQPNPPGFGSISSSTALFPTGSQPAPPTFGTVSSSSQPPVFGQQPSQSAFGSGTTPNSSSAFQFGSSTTNFNFTNNSPSGVFTFGANSSTPAASAQPSGSGGFPFNQSPAAFTVGSNGKNVFSSSGTSFSGRKIKTAVRRRK
B2: binds [2].

B3: cNup214 (cysteine-tagged FG domain of human Nup214) (domain or fragment, UniProt P35658 1809-2090, looked up)
chain: SPGFGQGGSVFGGTSAATTTAATSGFSFCQASGFGSSNTGSVFGQAASTGGIVFGQQSSSSSGSVFGSGNTGRGGGFFSGLGGKPSQDAANKNPFSSASGGFGSTATSNTSNLFGNSGAKTFGGFASSSFGEQKPTGTFSSGGGSVASQGFGFSSPNKTGGFGAAPVFGSPPTFGGSPGFGGVPAFGSAPAFTSPLGSTGGKVFGEGTAAASAGGFGFGSSSNTTSFGTLASQNAPTFGSLSQQTSGFGTQSSGFSGFGSGTGGFSFGSNNSSVQGFGGWRS
For B3, the binding result [2] was “binds” and the Kd [3] was 110 ± 20 nM.

B4: cNup62 (cysteine-tagged FG domain of human Nup62) (domain or fragment, UniProt P37198 1-240, looked up)
chain: MSGFNFGGTGAPTGGFTFGTAKTATTTPATGFSFSTSGTGGFNFGAPFQPATSTPSTGLFSLATQTPATQTTGFTFGTATLASGGTGFSLGIGASKLNLSNTAATPAMANPSGFGLGSSNLTNAISSTVTSSQGTAPTGFVFGPSTTSVAPATTSGGFSFTGGSTAQPSGFNIGSAGNSAQPTAPATLPFTPATPAATTAGATQPAAPTPTATITSTGPSLFASIATAPTSSATTGLSLC
B4 was tested, and the binding result [2] was “binds” and the Kd [3] was 2860 ± 380 nM.
